Test results taken from patent publication US9493537.

Target: melanocortin-1 (MC1) receptor on B16/F1 murine melanoma cells (mouse (B16/F1 murine melanoma cells)) (UniProt Q01727)
Assay: cell-based or functional assay

Sequence of melanocortin-1 (MC1) receptor on B16/F1 murine melanoma cells (mouse (B16/F1 murine melanoma cells)) (Q01727 whole entry): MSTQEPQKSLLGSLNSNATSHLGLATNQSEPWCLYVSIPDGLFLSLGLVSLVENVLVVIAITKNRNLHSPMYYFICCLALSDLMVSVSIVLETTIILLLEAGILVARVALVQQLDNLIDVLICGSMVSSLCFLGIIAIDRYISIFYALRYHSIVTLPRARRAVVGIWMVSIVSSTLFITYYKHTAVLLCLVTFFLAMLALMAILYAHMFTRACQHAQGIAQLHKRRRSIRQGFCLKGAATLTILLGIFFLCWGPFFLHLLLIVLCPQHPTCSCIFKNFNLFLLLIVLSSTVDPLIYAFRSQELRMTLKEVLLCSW

**Q.** 111In-DOTA-GENle-CycMSHhex (peptide) was tested. Which tumor uptake in B16/F1 melanoma-bearing C57 mice at 2 h blocked by co-injection of non-radioactive NDP-MSH did it give?
**A.** Its tumor uptake in B16/F1 melanoma-bearing C57 mice at 2 h blocked by co-injection of non-radioactive NDP-MSH is 95.6%.

**Q.** 111In-DOTA-GGNle-CycMSHhex (peptide) was tested. Which tumor uptake in B16/F1 melanoma-bearing C57 mice blocked by 10 µg (6.07 nmol) of non-radiolabeled NDP-MSH did it give?
**A.** The tumor uptake in B16/F1 melanoma-bearing C57 mice blocked by 10 µg (6.07 nmol) of non-radiolabeled NDP-MSH was 98%.
